Changes are numbered by the printed parent chain.
T1: human CEACAM5 on cells (human, UniProt P06731 35-685)
T1 construct: tumour cell lines with endogenous CEACAM5, or B16F10 engineered to express hCEACAM5; also called CEACAM5 on MKN-45, HPAF-II, SK-CO-1, LoVo, BxPC-3, Kato-III, LS-174T, ZR-75-30; hCEACAM5-B16F10
T1 sequence: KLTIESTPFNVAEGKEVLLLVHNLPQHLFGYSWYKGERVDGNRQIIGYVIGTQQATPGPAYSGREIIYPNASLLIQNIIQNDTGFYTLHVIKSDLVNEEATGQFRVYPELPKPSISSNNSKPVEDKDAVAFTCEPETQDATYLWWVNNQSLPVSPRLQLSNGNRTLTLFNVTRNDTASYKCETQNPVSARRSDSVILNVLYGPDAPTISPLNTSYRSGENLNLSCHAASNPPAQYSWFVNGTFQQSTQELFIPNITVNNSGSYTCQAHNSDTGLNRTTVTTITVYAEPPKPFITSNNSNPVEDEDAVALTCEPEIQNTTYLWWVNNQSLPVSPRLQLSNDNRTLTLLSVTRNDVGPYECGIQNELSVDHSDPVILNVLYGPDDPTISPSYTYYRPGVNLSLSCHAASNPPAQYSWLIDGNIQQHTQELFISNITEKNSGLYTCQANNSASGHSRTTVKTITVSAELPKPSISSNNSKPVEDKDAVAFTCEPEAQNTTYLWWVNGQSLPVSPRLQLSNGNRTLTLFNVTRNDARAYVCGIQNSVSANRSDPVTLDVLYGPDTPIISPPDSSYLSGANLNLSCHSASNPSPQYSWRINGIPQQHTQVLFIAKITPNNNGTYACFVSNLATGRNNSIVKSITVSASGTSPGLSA

T2: human CEACAM8 on Ba/F3 cells (human, UniProt P31997 35-320)
T2 construct: whole, on cells
T2 sequence (looked up): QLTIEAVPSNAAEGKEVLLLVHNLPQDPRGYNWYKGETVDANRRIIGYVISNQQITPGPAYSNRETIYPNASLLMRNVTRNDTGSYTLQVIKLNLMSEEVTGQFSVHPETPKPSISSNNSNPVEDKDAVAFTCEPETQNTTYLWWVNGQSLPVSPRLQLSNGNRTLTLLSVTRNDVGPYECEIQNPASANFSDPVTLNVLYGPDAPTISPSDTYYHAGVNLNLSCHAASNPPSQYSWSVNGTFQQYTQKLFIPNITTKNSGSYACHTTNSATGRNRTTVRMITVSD

T3: Human CEACAM5 (E398) (human, UniProt P06731 35-685, limits assumed)
T3 construct: also called hCEACAM5
T3 sequence: T1 sequence

B1: AB0466 F3' CEACAM5 TriNKET (bispecific antibody, human IgG1, kappa)
chain: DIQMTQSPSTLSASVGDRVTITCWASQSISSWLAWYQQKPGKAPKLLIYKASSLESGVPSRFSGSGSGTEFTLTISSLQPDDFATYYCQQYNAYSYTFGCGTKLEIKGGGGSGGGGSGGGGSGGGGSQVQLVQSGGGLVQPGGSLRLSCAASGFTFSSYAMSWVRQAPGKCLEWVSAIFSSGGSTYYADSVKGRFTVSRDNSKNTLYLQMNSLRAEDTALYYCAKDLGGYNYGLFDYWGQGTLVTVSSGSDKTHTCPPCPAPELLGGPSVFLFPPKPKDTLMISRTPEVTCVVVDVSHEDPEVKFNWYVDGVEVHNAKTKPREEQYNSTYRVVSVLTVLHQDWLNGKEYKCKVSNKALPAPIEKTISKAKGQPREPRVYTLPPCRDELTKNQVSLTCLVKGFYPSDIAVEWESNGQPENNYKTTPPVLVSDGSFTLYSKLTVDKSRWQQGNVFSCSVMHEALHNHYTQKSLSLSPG
heavy: EVQLVESGGGLVKPGGSLRLSCAASGFTFSSYSMNWVRQAPGKGLEWVSSISSSSSYIYYADSVKGRFTISRDNAKNSLYLQMNSLRAEDTAVYYCARGAPIGAAAGWFDPWGQGTLVTVSSASTKGPSVFPLAPSSKSTSGGTAALGCLVKDYFPEPVTVSWNSGALTSGVHTFPAVLQSSGLYSLSSVVTVPSSSLGTQTYICNVNHKPSNTKVDKKVEPKSCDKTHTCPPCPAPELLGGPSVFLFPPKPKDTLMISRTPEVTCVVVDVSHEDPEVKFNWYVDGVEVHNAKTKPREEQYNSTYRVVSVLTVLHQDWLNGKEYKCKVSNKALPAPIEKTISKAKGQPREPQVCTLPPSRDELTENQVSLTCLVKGFYPSDIAVEWESNGQPENNYKTTPPVLDSDGSFFLYSWLTVDKSRWQQGNVFSCSVMHEALHNHYTQKSLSLSPG
light: DIQMTQSPSSVSASVGDRVTITCRASQGISSWLAWYQQKPGKAPKLLIYAASSLQSGVPSRFSGSGSGTDFTLTISSLQPEDFATYYCQQGVSFPRTFGGGTKVEIKRTVAAPSVFIFPPSDEQLKSGTASVVCLLNNFYPREAKVQWKVDNALQSGNSQESVTEQDSKDSTYSLSSTLTLSKADYEKHKVYACEVTHQGLSSPVTKSFNRGEC
B2: AB0621 F3' CEACAM5 TriNKET (bispecific antibody, human IgG1, kappa)
chain: DIVMTQSPDSLAVSLGERATINCKSSHSLLYGNFQNNYLAWYQQKPGQPPKLLIYWASTRESGVPDRFSGSGSGTDFTLTISSLQAEDVAVYYCQQYYSYPYTFGCGTKLEIKGGGGSGGGGSGGGGSGGGGSQVQLVQSGAEVKKPGASVKVSCKASGYTFTAYTIHWVRQAPGQCLEWMGYINPSSGYTEYNQKFKDRTTLTADTSISTAYMELSRLRSDDTAVYYCTREGGLLWFDYWGQGTLVTVSSGSDKTHTCPPCPAPELLGGPSVFLFPPKPKDTLMISRTPEVTCVVVDVSHEDPEVKFNWYVDGVEVHNAKTKPREEQYNSTYRVVSVLTVLHQDWLNGKEYKCKVSNKALPAPIEKTISKAKGQPREPRVYTLPPCRDELTKNQVSLTCLVKGFYPSDIAVEWESNGQPENNYKTTPPVLVSDGSFTLYSKLTVDKSRWQQGNVFSCSVMHEALHNHYTQKSLSLSPG
heavy: B1 heavy
light: B1 light
B3: AB0411 F3' CEACAM5 TriNKET (bispecific antibody, human IgG1, kappa)
chain: DIQLTQSPATLSVSPGERATLSCRASQSVSSSYLAWYQQKPGQAPRLLIYGASSRATGIPDRFSGSGSGTDFTLTISRLEPEDFAVYYCQQYNNWPLTFGCGTKVEIKGGGGSGGGGSGGGGSGGGGSQVQLVQSGGGLVQPGGSLRLSCAASGFTFTSYAMSWVRQAPGKCLEWVSAISGTGDSTFYADSVKGRFTFSRDNSKNTLYLQMNSLRAEDTAVYYCAKDLGWLQYGLFDYWGQGTLVTVSSGSDKTHTCPPCPAPELLGGPSVFLFPPKPKDTLMISRTPEVTCVVVDVSHEDPEVKFNWYVDGVEVHNAKTKPREEQYNSTYRVVSVLTVLHQDWLNGKEYKCKVSNKALPAPIEKTISKAKGQPREPRVYTLPPCRDELTKNQVSLTCLVKGFYPSDIAVEWESNGQPENNYKTTPPVLVSDGSFTLYSKLTVDKSRWQQGNVFSCSVMHEALHNHYTQKSLSLSPG
heavy: B1 heavy
light: B1 light
B4: AB0264 F3' CEACAM5 TriNKET (bispecific antibody, human IgG1, kappa)
chain: B2 chain with S210P
heavy: B1 heavy
light: B1 light

Target: T1, human CEACAM5 on cells
Experiment: flow cytometry, HPAF-II cells
Experimental: MKN-45 and HPAF-II human cancer cell lines were diluted into FACS buffer and 100,000 cells of each cell type were seeded per well in duplicate into 96-well plates for FACS staining. The cells were washed with PBS, incubated in a 1:2000 dilution of live/dead dye in PBS for 15 minutes, and then washed with FACS buffer. AB0264, AB0411, AB0466, and AB0621 were diluted into FACS buffer, and 50 μl of each diluted TriNKET was added to the cells. After incubation on ice for 30-120 minutes, the cells were washed with FACS buffer. Anti-human IgG-Fc secondary antibody was diluted into FACS buffer, and 50 μl was added per well for detection of the bound TriNKETs. The cells were incubated for 30-60 minutes on ice and then washed with FACS buffer. 50 μl of fixation buffer was added to each well and the cells were incubated for 10 minutes at room temperature. The cells were washed with FACS buffer and resuspended in FACS buffer for analysis with ThermoFisher Attune NxT, BD FACS Celesta SN #H66034400085, or BD FACS Celesta SN #H66034400160.
Cells of interest were identified using FSC vs. SSC plot and an appropriately shaped gate was drawn around the cells. Within the gated cells, doublet cells were removed by viewing FSC-H vs. FSC-A plot. Within the single cell population, live cells were gated. Within the live gate, the median fluorescence intensity (MFI) of each sample and the secondary-only control was calculated. Fold-over-background (FOB) was calculated as the ratio of test article MFI over secondary-only background MFI. Data were fit to a four-parameter non-linear regression curve using GraphPad Prism 7.0.

EC50	Max FOB	Binder
7.61 nM	49 fold over background	B1
18.1 nM	24.9 fold over background	B2
8.36 nM	54.9 fold over background	B3
20.3 nM	27.9 fold over background	B4

Target: T2, human CEACAM8 on Ba/F3 cells
Experiment: flow cytometry on Ba/F3 cells expressing human CEACAM8, fold over background (FOB), 5-fold dilutions from 1600 nM
Experimental: To examine the binding specificity of the TriNKETs to CEACAM5 compared to other CEACAM family members, Ba/F3 cells were engineered to express one of human CEACAM1, CEACAM6, CEACAM8, or cynomolgus CEACAM5. CEACAM5 TriNKETs were evaluated by flow cytometry starting at 1600 nM followed by 7 5-fold dilutions.

binding result	Binder
no binding (tested: 1600 nM)	B1
no binding (tested: 1600 nM)	B2
no binding (tested: 1600 nM)	B4

Target: T3, Human CEACAM5 (E398)
Experiment: SPR, anti-hFc capture, 37C, pH 7.4
Experimental: To determine the affinity and cross-reactivity of CEACAM5 TriNKET molecules, AB0411, AB0466, or AB0621 TriNKETs were captured using an anti-human Fc capture antibody (Cytiva, #BR100839) immobilized onto a Biacore CM5 standard surface sensor chip following manufacturer instructions. Human or cynomolgus CEACAM5 were titrated over captured AB0411, AB0466, and AB0621 as 2-fold serial dilutions starting from 300 nM. Association was monitored for 300 sec and dissociation was monitored for 600 sec. The assay was run at 37° C. at pH 7.4 and 6.0. The surface of the CM5 chip was regenerated with 10 mM glycine pH 1.5 for 20 sec at 100 μL/min.

Kd	kon	Binder
7.2 nM	190000 M⁻¹ s⁻¹	B1
17 nM	100000 M⁻¹ s⁻¹	B2
1.7 nM	270000 M⁻¹ s⁻¹	B3

Target: T4, Cyno FcγRIIIA (cynomolgus monkey, UniProt Q8SPW2 17-208, limits assumed, biotinylated)
T4 construct: also called cynomolgus CD16A
T4 sequence (Q8SPW2 17-208 limits assumed): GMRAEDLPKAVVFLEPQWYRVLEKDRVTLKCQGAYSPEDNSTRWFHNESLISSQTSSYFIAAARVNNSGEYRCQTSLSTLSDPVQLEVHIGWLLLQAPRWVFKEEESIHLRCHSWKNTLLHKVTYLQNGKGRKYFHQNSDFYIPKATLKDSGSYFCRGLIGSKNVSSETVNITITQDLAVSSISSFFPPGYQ
Experiment: SPR, biotin-CD16A on SA chip, 25C, pH 7.4
Experimental: (§1) Binding to human and cynomolgus CD16A was assessed using biotinylated CD16A captured on a streptavidin (SA) sensor chip (Cytiva, #BR100531). AB0411, AB0466, or AB0621 was titrated from 1500 nM at 25° C. at 30 μL/min for 150 sec association followed by 300 sec dissociation. The surface of the chip was regenerated with 2 mM sodium hydroxide for 5 sec at 30 μL/min. Running buffer was HBS-EP+. […] The V158 isoform bound ˜2- to 3-fold tighter than the F158 isoform as expected.

Kd	koff	kon	Binder
140 nM	0.11 s⁻¹	790000 M⁻¹ s⁻¹	B1
160 nM	0.11 s⁻¹	720000 M⁻¹ s⁻¹	B2
100 nM	0.075 s⁻¹	730000 M⁻¹ s⁻¹	B3

Target: human CD16A (FcγRIIIA) F158 (human, UniProt P08637 17-208, limits assumed, biotinylated)
Sequence (P08637 17-208 limits assumed): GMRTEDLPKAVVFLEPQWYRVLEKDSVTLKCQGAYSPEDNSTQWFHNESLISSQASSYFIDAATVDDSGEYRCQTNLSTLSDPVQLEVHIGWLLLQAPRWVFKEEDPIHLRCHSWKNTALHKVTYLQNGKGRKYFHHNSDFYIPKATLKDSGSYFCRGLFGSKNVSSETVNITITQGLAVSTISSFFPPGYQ
Experiment: SPR, biotin-CD16A on SA chip, 25C, pH 7.4
Experimental: as §1

Kd	koff	kon	Binder
690 nM	0.21 s⁻¹	310000 M⁻¹ s⁻¹	B1
640 nM	0.19 s⁻¹	300000 M⁻¹ s⁻¹	B2
370 nM	0.086 s⁻¹	220000 M⁻¹ s⁻¹	B3

Source: patent US20240124607A1 (Merck Sharp & Dohme, published 2024)
